The values below are quoted from earlier work in PMC10560217.

Like-named read-outs stand apart in the source and are kept apart here.

The target in data set [1] is dmIR (Drosophila melanogaster) (UniProt P09208).
Data set [2] has the same target. This is another data set of the same source.
Data set [3] has the same target. This is another data set of the same source.
The target of a further data set is hIR ECD (Homo sapiens) (UniProt P06213).

dmIR (Drosophila melanogaster), sequence (P09208 44-1310): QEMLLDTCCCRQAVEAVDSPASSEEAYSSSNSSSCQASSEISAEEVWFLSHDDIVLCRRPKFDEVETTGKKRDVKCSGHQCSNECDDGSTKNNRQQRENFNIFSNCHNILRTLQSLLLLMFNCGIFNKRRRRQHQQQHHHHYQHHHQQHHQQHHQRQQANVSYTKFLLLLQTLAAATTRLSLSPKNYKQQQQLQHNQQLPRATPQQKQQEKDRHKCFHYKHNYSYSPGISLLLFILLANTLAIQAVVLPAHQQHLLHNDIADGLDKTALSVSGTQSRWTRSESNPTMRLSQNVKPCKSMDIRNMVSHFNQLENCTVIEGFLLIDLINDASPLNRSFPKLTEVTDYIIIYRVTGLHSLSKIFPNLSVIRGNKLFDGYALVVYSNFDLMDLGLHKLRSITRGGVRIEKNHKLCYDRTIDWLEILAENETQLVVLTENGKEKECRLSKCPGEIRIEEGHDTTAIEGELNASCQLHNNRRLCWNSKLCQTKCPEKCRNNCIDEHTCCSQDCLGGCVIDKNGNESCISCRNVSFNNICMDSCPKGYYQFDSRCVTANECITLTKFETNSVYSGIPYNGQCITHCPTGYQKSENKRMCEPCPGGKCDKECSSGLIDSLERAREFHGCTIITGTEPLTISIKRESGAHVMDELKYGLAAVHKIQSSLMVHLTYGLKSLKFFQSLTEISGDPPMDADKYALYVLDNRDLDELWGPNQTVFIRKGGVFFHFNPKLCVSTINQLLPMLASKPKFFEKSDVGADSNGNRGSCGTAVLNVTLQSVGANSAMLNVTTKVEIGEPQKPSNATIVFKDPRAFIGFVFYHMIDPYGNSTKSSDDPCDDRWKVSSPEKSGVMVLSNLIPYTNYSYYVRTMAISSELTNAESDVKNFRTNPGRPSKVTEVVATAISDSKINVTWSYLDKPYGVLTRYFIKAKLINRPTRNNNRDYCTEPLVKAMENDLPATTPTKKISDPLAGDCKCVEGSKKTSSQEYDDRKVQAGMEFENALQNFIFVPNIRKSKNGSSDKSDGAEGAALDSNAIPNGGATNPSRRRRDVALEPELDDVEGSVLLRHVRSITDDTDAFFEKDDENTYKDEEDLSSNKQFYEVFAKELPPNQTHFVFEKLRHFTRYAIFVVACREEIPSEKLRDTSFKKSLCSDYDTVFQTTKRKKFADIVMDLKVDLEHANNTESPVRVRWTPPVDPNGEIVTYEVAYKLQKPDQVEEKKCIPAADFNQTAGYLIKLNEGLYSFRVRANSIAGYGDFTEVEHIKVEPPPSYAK
insulin, sequence (P01308 90-110): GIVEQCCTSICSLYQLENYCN
DILP5 DB, sequence (Q7KUD5 23-50): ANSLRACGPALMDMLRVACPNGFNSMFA
DILP5 DB, sequence (Q7KUD5 84-108): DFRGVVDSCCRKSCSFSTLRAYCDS
DILP5 C4, sequence (Q7KUD5 87-108): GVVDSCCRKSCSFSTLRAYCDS

With DILP5 DB (from UniProt Q7KUD5), in data set [1], the Kd – broadly, the equilibrium constant for the complex coming apart – is 0.00035 µM. As for DILP5 C4 (from UniProt Q7KUD5), the Kd in data set [2] is 0.00076 µM. As to hIGF-1 (from UniProt P05019), the Kd in data set [3] was 5.91 µM. Consider insulin (from UniProt P01308), for which, in the data set with hIR ECD (Homo sapiens), the Kd is 0.03 µM.
